Measured values published in patent publication US7498429B2, “AHAS small subunit promoter” (priority 1998, dated 2009).

Experiments:
Format in all cases: biochemical
[1] = target: T1, Arabidopsis AHAS large subunit (wild type) (Arabidopsis thaliana, UniProt P17597); assay: AHAS assay of purified wild type large subunit with added substances
T1 construct: GST (glutathione transferase) (N, cleaved yes); made in house; host or cells: E. coli DH5alpha
T1 sequence (P17597 56-670): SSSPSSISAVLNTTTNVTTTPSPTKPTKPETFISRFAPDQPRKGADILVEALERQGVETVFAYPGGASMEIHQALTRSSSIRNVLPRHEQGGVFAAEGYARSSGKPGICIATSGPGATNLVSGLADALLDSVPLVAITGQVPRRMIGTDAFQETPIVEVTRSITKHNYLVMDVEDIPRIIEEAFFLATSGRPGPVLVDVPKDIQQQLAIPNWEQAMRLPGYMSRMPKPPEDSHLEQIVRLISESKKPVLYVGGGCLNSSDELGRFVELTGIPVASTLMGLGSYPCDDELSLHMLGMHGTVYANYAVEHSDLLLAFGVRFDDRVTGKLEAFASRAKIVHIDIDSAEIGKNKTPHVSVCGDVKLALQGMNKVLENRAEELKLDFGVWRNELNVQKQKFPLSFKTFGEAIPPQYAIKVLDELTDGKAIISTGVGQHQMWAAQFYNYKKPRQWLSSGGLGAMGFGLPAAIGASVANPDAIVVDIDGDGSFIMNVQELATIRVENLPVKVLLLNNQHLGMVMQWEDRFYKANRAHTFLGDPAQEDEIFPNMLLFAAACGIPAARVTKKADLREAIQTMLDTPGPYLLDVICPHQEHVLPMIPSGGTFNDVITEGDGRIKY
Procedure: (§1) AHAS assays. AHAS assays were performed with slight modification as described by Singh et al. {Singh et al., 1988}. AHAS activity was assayed in 1× AHAS assay buffer (50 mM HEPES pH 7.0, 100 mM pyruvate, 10 mM MgCl2, 1 mM TPP, and 50 μM FAD). A final concentration of 1× assay buffer was obtained either by dilution of enzyme extracted in 2× assay buffer or addition of enzyme to make a final concentration 1×AHAS assay buffer. All assays containing imazethapyr and associated controls contained a final concentration of 5% DMSO due to addition of imazethapyr to assay mixtures as a 50% DMSO solution. Assays were performed in a final volume of 250 μL at 37° C. in microtiter plates.
Effects of Dithiothreitol. The effect of dithiothreitol (DTT) in Phosphate Buffered Saline (MTPBS) on AHAS large subunit enzyme activity was measured. Experiments were carried out with or without 3 mM DTT in the purified protein solution of large subunit. The assays were conducted as above. […] Moreover, in the absence of DTT, large subunit activity degraded over the 4 day period (FIG. 6).
Effects of Bovine Serum Albumin. To determine whether the enhancement of the large subunit was specific to the small subunit, another nonspecific control which tested the effects of bovine serum albumin was run. To a fixed amount of large subunit an increasing amount of a 0.25 mg/mil BSA solution was added.
(§2) The following experiments used the small subunit and large subunit proteins purified as described in Example 2 above. The plasmid F1 containing the AHAS small subunit gene from Arabidopsis was expressed in E. coli and partially purified. The protein concentration of the sample was determined and aliquots of increasing concentration were added to a constant amount of purified Arabidopsis large subunit.

[2] = target: T2, herbicide-resistant mutant (Met124 His) large subunit Arabidopsis AHAS protein (Arabidopsis thaliana, UniProt P17597, M124H); assay: AHAS assay of herbicide-resistant mutant large subunit with added small subunit; settings: mutant with methionine at position 124 substituted by histidine (FIG. 9)
T2 construct: GST (glutathione transferase) (N, cleaved yes); made in house; host or cells: E. coli DH5alpha
T2 sequence (P17597 56-670 M124H): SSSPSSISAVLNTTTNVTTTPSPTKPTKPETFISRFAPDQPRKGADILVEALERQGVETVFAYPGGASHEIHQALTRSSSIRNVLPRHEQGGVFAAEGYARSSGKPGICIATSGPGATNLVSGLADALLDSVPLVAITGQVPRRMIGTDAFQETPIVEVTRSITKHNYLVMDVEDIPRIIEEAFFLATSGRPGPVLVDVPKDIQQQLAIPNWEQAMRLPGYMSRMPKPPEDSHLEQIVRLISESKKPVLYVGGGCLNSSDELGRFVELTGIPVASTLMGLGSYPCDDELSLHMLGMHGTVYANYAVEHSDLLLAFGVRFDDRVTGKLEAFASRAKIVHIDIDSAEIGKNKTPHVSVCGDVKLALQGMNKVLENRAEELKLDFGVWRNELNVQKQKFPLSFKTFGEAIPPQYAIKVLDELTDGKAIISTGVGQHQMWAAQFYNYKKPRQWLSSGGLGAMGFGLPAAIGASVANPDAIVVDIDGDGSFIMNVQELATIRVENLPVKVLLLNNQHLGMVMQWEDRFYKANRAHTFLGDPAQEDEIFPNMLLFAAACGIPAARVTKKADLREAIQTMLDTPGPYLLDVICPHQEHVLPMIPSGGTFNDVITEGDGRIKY
T2 sequence (Q93YZ7 233-491 P488L, further chain): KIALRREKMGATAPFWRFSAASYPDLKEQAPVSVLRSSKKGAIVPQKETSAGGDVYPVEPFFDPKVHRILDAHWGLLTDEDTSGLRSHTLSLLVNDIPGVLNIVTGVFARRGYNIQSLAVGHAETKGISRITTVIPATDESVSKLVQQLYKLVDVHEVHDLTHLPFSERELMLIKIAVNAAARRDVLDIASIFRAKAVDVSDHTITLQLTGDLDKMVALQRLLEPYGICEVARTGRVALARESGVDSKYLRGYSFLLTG
Procedure: as §1, §2
In another experiment, a herbicide-resistant mutant of the large subunit enzyme (substitution mutation at position 124, methionine substituted by histidine) was used.

[3] = target: T3, Arabidopsis AHAS large subunit (Arabidopsis thaliana, UniProt P17597); assay: Stability of AHAS large subunit activity on storage in MTPBS with or without DTT
T3 construct: GST (glutathione transferase) (N, cleaved yes); made in house; host or cells: E. coli DH5alpha
T3 sequence (P17597 56-670): T1 sequence (P17597 56-670)
Procedure: The cell pellet from 1 liter of cell culture was resuspended in 10 ml of MTPBS (150 mM NaCl, 16 mM Na2HPO4, 4 mM NaH2PO4), pH 7.3 (Smith and Johnson Gene 67: 31-40, […]) and 100 μg/ml of lysozyme was added. The suspension was adjusted to 5 mM dithiothreitol. Triton X-100 was added to a final concentration of 1% by addition of a 20% Triton X-100 in MTPBS solution. The cells were shaken gently at 30° C. for 15 minutes and were then cooled to 4° C. on ice and sonicated for 8-10 seconds using a microtip probe, duty cycle 70%, output control at maximum for the microtip pulser. The sonicate was centrifuged two times in a J20 rotor, 17,000 rpm, 4° C., 10 minutes, to remove insoluble material. Lysate was added to 150 mg (dry weight) of glutathione agarose (equilibrated and hydrated in MTPBS) and inverted for 30 minutes at 4° C. Agarose was settled by centrifugation at 500 rpm for 5 minutes and was washed with ice cold MTPBS by repeated centrifugation cycles until the A280 of the wash matched that of MTPBS. Agarose was transferred to an appropriate column for elution. Fusion proteins were eluted with 50 mM Tris-HCl, 5 mM reduced glutathione into 1 ml fractions. […]
Effects of Dithiothreitol. The effect of dithiothreitol (DTT) in Phosphate Buffered Saline (MTPBS) on AHAS large subunit enzyme activity was measured. […]

Molecule: O[C@H](CS)[C@H](O)CS (racemic) [DTT, dithiothreitol]
- effect on catalytic activity of the AHAS large subunit ([1]; 3 mM DTT in MTPBS versus no DTT (FIG. 5 vs FIG. 6)): enhanced dramatically
- stabilization and activation of the enzyme compared with other sulfhydryl reductants ([1]; versus reduced glutathione and β-mercaptoethanol): better than reduced glutathione and β-mercaptoethanol

Molecule: Arabidopsis small subunit protein: Arabidopsis AHAS small subunit expressed from plasmid F1 in E. coli and partially purified
- effect on enzymatic activity of herbicide-resistant form of the large subunit [2]: also enhanced
- effect on enzymatic activity of the catalytic large subunit ([1]; increasing small subunit (from plasmid F1) added to constant wild type large subunit (FIG. 8)): enhances the level of enzymatic activity

B1: Arabidopsis large subunit: purified wild type Arabidopsis AHAS large subunit protein expressed in E. coli (pAC774) (protein)
chain: SSISAVLNTTTNVTTTPSPTKPTKPETFISRFAPDQPRKGADILVEALERQGVETVFAYPGGASMEIHQALTRSSSIRNVLPRHEQGGVFAAEGYARSSGKPGICIATSGPGATNLVSGLADALLDSVPLVAITGQVPRRMIGTDAFQETPIVEVTRSITKHNYLVMDVEDIPRIIEEAFFLATSGRPGPVLVDVPKDIQQQLAIPNWEQAMRLPGYMSRMPKPPEDSHLEQIVRLISESKKPVLYVGGGCLNSSDELGRFVELTGIPVASTLMGLGSYPCDDELSLHMLGMHGTVYANYAVEHSDLLLAFGVRFDDRVTGKLEAFASRAKIVHIDIDSAEIGKNKTPHVSVCGDVKLALQGMNKVLENRAEELKLDFGVWRNELNVQKQKFPLSFKTFGEAIPPQYAIKVLDELTDGKAIISTGVGQHQMWAAQFYNYKKPRQWLSSGGLGAMGFGLPAAIGASVANPDAIVVDIDGDGSFIMNVQELATIRVENLPVKVLLLNNQHLGMVMQWEDRFYKANRAHTFLGDPAQEDEIFPNMLLFAAACGIPAARVTKKADLREAIQTMLDTPGPYLLDVICPHQEHVLPMIPSGGTFNDVITEGDGRIKY
- stability of large subunit activity ([3]; absence of DTT, 4 day period (FIG. 6)): degraded
- stability of large subunit ([3]; in the presence of 3 mM DTT, 1 month, stored at 4° C.): very stable
